US20070041999A1 (published 2007)

Biological target: the molecule itself
Experiment: disassembly by dialysis, size exclusion chromatography / SEC-HPLC; self-association of capsid protein
Experimental: Dissasembly of plant produced CCMV virus particles: Purified CCMV was disassembled by dialysis against buffer A (50 mM Tris HCl pH7.5, 500 mM CaCl₂, 1 mM DTT, 0.2 mM PMSF) for 16-29 hours at 4° C. The disassembled virus was centrifuged at 14,000 rpm for 15 min at 4° C. to pellet the viral RNA. The remaining supernatant was dialyzed against buffer B (200 mM Tris HCl pH7.5, 1M NaCl, 1 mM DTT, 0.2 mM PMSF) for 2 hours at 4° C. The CCMV dissasembled into capsid protein dimers that were further purified by FPLC Superose 12 size exclusion chromatography. The diassambled CCMV was analyzed by SEC-HPLC (FIG. 8).

B1: Wild type CCMV coat protein encoded by sgRNA4 (other)
chain: STVGTGKLTRAQRRAAARKNKRNTRVVQPVIVEPIASGQGKAIKAWTGYSVSKWTASCAAAEAKVTSAITISLPNELSSERNKQLKVGRVLLWLGLLPSVSGTVKSCVTETQTTAAASFQVALAVADNSKDVVAAMYPEAFKGITLEQLTADLTIYLYSSAALTEGDVIVHLEVEHVRPTFDDSFTPVY
notes: also called CCMV CP; CCMV capsid protein
B1: binds.
